Data set [1] deals with human skin chymase (HSC). Description: Cleavage of APP592-601 by human skin chymase. It counts as biochemical. As to conditions: 200 ng enzyme; standard peptide cleavage assay. The method, then:
(§1) Routinely, 25 ul of enzyme solution were mixed with 10 ul of 1M Tris, pH 7.5, 5 ul 10 mM CaCl2, and 10 ul of a 2 mg/ml Stock solution of APP592-601 in water, or 20 mM Tris, pH 7.5, 0.15M NaCl, in 1.5 ml polypropylene microfuge tubes. The reaction mixtures were incubated for 60 min at 37° C. in a water bath, then quenched with 450 ul ice-cold ethanol, and incubated on ice for a further 20 min. They were centrifuged at 15,000×g for 10 min, and the supernatants transferred to new polypropylene tubes and dried under vacuum. The residue was dissolved in 0.5 ml water, centrifuged at 15,000×g for 5 min, and 200 ul of the supernatant injected onto a 0.46×30 cm Vydac C18 column equilibrated with 0.1% trifluoroacetic acid in water, at 1 ml/min. The column was immediately eluted with a linear gradient to 40% acetronitrile in 0.1% trifluoroacetic acid in water, over 20 minutes. The elution was monitored at 220 nm, and peaks were individually collected, hydrolyzed in 6N HCl at […] for 2 hr, then subjected to quantitative amino-acid analysis in an Applied Biosystems amino-acid analyzer. Once identified, times of elution were used to identify cleavage patterns.

Data set [2] concerns the target T1, clipsin/RMCP I (Rattus norvegicus, UniProt P09650).
T1 sequence (P09650 21-260): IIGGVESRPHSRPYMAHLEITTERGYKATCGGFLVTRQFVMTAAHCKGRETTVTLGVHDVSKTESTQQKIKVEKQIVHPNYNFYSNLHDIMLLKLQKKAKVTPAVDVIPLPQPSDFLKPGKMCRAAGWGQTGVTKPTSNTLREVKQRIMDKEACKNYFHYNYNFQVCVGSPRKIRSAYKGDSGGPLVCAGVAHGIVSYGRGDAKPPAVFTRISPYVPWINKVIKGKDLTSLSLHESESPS
Description: Cleavage of APP592-601 by clipsin/RMCP I. It counts as biochemical. As to conditions: standard peptide cleavage assay. The protocol:
as §1
The procedure to isolate RMCP I was adapted exactly from that described by Nelson & Siman (1990), supra. […]

For data set [3], the target named is T2, amyloidin (Homo sapiens, UniProt P52888).
T2 construct: from tissue; a purification from blood is also described
Briefly: Cleavage of APP592-601 and its analogs by amyloidin (subsite requirements). Type of data set: biochemical. As to conditions: pH 7.5, CaCl2, 37° C., 60 min; RP-HPLC. The method, then:
as §1
In order to test the subsite requirements of amyloidin in the APP592-601 cleavage assay, analogs of this peptide substrate were synthesized.
Following synthesis and purification, the peptides were then incubated with amyloidin under conditions identical to those developed with APP592-601. The underlined residues designated changes from the native peptide sequence while the arrows indicate peptide cleavage sites. [drawing 5]

The test system of data set [4] is extracts of mammalian tissues. Description: Cleavage of amyloid-like substrate by soluble tissue extracts. Type of data set: biochemical. The conditions noted are these: low-ionic strength extract; 0.1 to 10 mM Ca++; pH 6.5 to 8. The method, then: To isolate the amyloid protease activities of the present invention, extracts of mammalian tissues were made in a variety of aqueous buffers, such as, for example, Tris, phosphate and HEPES, of about 20-50 mM pH 7.5, at 4°-8° C., using conventional homogenation procedures, such as, for example, Waring blender or Teflon homogenizer, followed by repeated centrifugation at 10,000-15,000×g. The supernatant soluble fraction from this stage ("low ionic strength") are decanted and the pellet is further extracted with high ionic strength salt, for example 1M NaCl, and a detergent, such as 1% Triton X-100. If, however, the amyloidin proteases are to be isolated from mammalian cells such as erythrocytes, conventional cell disruption techniques may be employed. Such techniques include homogenization, sonication, osmotic lysis and pressure cycling. Prior to disruption, the cells may be first concentrated by filtration, centrifugation, or other conventional methods.
The various extracts are generally incubated with the amyloid-like substrates under a variety of conditions. […]
Aliquots of the sample are analyzed by injection onto a C18 reversed-phase HPLC column and elution with a 0-60% gradient of 0.1% TFA/acetonitrile, to assess the degradation of the substrate. […] Little peptide cleavage activity was detected under other extraction conditions, for example, with high salt or detergents. […]

Data set [5] relates to RMCP I. The conditions noted are these: known before; listed as α1 -antichymotrypsin; cited from earlier work.
Data set [6] addresses T2, amyloidin. Briefly: Inhibition of amyloidin by various inhibitors (APP592-601 peptide cleavage). Type of data set: biochemical.
Data set [7] relates to brain protease. The conditions noted are these: Abraham et al; cited from earlier work.
Data set [8] relates to human skin chymase (HSC). The conditions noted are these: known before; cited from earlier work.
Data set [9] deals with RMCP I. Briefly: Inhibition of RMCP I, Suc-Ala-Ala-Pro-Phe-pNA hydrolysing activity. It counts as biochemical, rat. The conditions noted are these: pre-treatment with 200 ng.
Data set [10] relates to RMCP I. Description: Inhibition of RMCP I, APP592-601 cleaving activity. The conditions noted are these: pre-treatment with 200 ng. It counts as biochemical, rat.

Entries after “also recorded” stand apart in the source; their conditions may differ. Residues, ends and D or L forms follow the SMILES beside them.

These results are taken from patent publication US5424205A, “Amyloidin protease and uses thereof” (Athena Neurosciences, Inc., priority 1993, dated 1995).

T2 sequence (P52888 whole entry): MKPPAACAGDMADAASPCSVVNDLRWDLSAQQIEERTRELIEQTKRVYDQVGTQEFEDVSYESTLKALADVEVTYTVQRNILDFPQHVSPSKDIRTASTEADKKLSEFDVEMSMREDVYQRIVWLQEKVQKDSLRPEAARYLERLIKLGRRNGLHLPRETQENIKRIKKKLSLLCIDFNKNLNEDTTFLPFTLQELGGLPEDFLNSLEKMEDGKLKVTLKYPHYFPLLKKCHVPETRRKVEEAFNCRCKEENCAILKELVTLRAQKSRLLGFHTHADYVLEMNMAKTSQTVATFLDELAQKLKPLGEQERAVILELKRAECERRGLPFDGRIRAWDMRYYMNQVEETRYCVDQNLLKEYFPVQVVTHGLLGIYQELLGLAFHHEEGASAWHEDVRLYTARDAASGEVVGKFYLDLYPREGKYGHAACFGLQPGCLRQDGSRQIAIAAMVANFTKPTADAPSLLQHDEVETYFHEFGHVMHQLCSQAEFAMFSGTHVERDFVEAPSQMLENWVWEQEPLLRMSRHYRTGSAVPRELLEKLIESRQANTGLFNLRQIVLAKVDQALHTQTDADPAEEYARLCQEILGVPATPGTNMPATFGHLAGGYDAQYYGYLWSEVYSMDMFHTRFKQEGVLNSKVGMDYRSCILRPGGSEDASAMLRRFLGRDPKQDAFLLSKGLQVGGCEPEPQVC

With `CSCC[C@H](NC(=O)[C@H](CCCCN)NC(=O)[C@@H](NC(=O)[C@H](CCC(=O)O)NC(=O)[C@H](CO)NC(C)=O)C(C)C)C(=O)N[C@@H](CC(=O)O)C(=O)N[C@@H](C)C(=O)N[C@@H](CCC(=O)O)C(=O)N[C@@H](Cc1ccccc1)C(=O)N[C@@H](CCCNC(=N)N)C(=O)O` [APP592-601] (Ac-SEVKMDAEFR-OH), in data set [1], the “site of cleavage of APP592-601 by human skin chymase” value was “cleavage at the Met-Asp bond; also recorded: all three proteases cleaved the APP592-601 peptide at the Met-Asp bond”. Moreover, the “site of cleavage of APP592-601 by clipsin/RMCP I” value in [2] is “cleavage at the Met-Asp bond; also recorded: selectively cleaves the amyloid substrate APP592-601 at the Met-Asp peptide bond; also recorded: all three proteases cleaved the APP592-601 peptide at the Met-Asp bond”. Further, the “site of cleavage by amyloidin” value in [3] is “three-site cleavage”. The “major sites of cleavage by crude tissue extract” value in data set [4] was “between the Met-Asp, the Asp-Ala, and the Ala-Glu bonds”.

B1: α1-ACT: general plasma serine proteinase inhibitor (protein, UniProt P01011 24-423, looked up)
Alpha-1-antichymotrypsin: HPNSPLDEENLTQENQDRGTHVDLGLASANVDFAFSLYKQLVLKAPDKNVIFSPLSISTALAFLSLGAHNTTLTEILKGLKFNLTETSEAEIHQSFQHLLRTLNQSSDELQLSMGNAMFVKEQLSLLDRFTEDAKRLYGSEAFATDFQDSAAAKKLINDYVKNGTRGKITDLIKDLDSQTMMVLVNYIFFKAKWEMPFDPQDTHQSRFYLSKKKWVMVPMMSLHHLTIPYFRDEELSCTVVELKYTGNASALFILPDQDKMEEVEAMLLPETLKRWRDSLEFREIGELYLPKFSISRDYNLNDILLQLGIEEAFTSKADLSGITGARNLAVSQVVHKAVLDVFEEGTEASAATAVKITLLSALVETRTIVRFNRPFLMIIVPTDTQNIFFMSKVTNPKQA
With B1, the “inhibition of RMCP I, as known” value in data set [5] is “strong inhibitor of RMCP I; also recorded: inhibitable”. For the same molecule, the “% Control Activity” value in data set [6] (assay conc. 30 ug/ml, 30 min pre-incubation, room temperature) came to 121%. Also, the “inhibitory effect on amyloidin” value in data set [6] (in words) was “Neither α-1-proteinase inhibitor or α-1-antichymotrypsin, two general plasma serine proteinase inhibitors, had any inhibitory effect”. In addition, the “inhibition of peptide cleavage by brain protease” value in data set [7] was “inhibited”. Further, in data set [8], the “inhibition of HSC, as known” value is recorded as “inhibitable”. Also, the “inhibition of Suc-Ala-Ala-Pro-Phe-pNA hydrolysing activity” value in [9] is “completely eliminated”. Besides, the “inhibition of APP592-601 cleaving protease activity” value in data set [10] is recorded as “completely inhibited”.
